Experimental data reported in patent US20150197559A1 (University of California, published 2015).

B1: B6.C12 Fab (Fab, V domains shown)
VH: QVQLVQSGAEVKKPGESLVISCKASGDKDTFTSFWIAWVRQMPGKGLEWMGIIYAGDSDTRYSPSFQGHVNISVDRSTNTAYLQWSSLKASDTAMYYCARHDSRYKYFYFGMDVWGQGTTVTVSS
VL: DIVMTQSPSSLSASVGDRVTITCRASQSISSYLNWYQQKPGKAPKLLIYAASSLQSGVPSRFSGSGSGTDFTLTISSLQPEAFATYYCQQSYTAPCTFGQGTKLEIK
B2: B6.D2 Fab (Fab, V domains shown)
VH: B1 VH
VL: DVVMTQSPCLPCLHLIGDRVTITCRASQSIRDYLSWYQQEPGKAPKLLIYSASSLQSGVPSRFSGSGSGTDFTLTITNLQPEDFATYYCLEKYSFPRCTFGQGTKLDIKR
B3: 1B22 IgG (antibody, V domains shown)
VH: QVQLQESGSRLVKPSQTLSLTCGVSGGSISSSSYSWSWIRQTPGKGLEWIGYIYHSGSTYYNPSLKSRVTMSVDKSRNQFSLNMSSVTAADTAVYYCARTAFYYENTGPIRCYLDFWGQGTLVTVSS
VL: DIQMTQSPSTLSASIGDRVTISCRASQSIQSWLAWYQQRPGEAPKLLIYSASTLQTGVPSRFSGSGSGTDFTLTISSLQPEDFATYYCQQYNSYPLTFGQGTKLEIK
B4: 2B23 scFv (scFv)
scFv: EVQLLESGGGLVQPGGSLRLSCAASGFTFSNYPMSWVRQAPGKGLAWVSSLTASGDNTFYADSVKGRFTISRDNSNNTLYLQMHSLRAEDTAVYYCAKALVGRYDISTGYYRPVMDSWGQGTLVTVSSGGGGSGGGGSGGGGSDIQMTQSPPSLSASVGDRVTITCRTSQGFTSALAWYQQKPGEPPKLLIYDASKLESGVPSRFSGSGSGTNFALTISSLQPEDFATYFCQQSNSYPLTFGGGTKVEIK
B5: 1B22 scFv (scFv)
scFv: QVQLQESGSRLVKPSQTLSLTCGVSGGSISSSSYSWSWIRQTPGKGLEWIGYIYHSGSTYYNPSLKSRVTMSVDKSRNQFSLNMSSVTAADTAVYYCARTAFYYENTGPIRCYLDFWGQGTLVTVSSGGGGSGGGGSGGGGSDIQMTQSPSTLSASIGDRVTISCRASQSIQSWLAWYQQRPGEAPKLLIYSASTLQTGVPSRFSGSGSGTDFTLTISSLQPEDFATYYCQQYNSYPLTFGQGTKLEIK
B6: 1B18 scFv (scFv, V domains shown)
VH: EVQLVQSGGGLVQPGGSRRLSCAASGFYFNAYWMTWVRQAPGKGLEWVANINLDGTEIYYLDSVKGRFTVSRDNVKNSVFLQMSSLRVEDTAVYFCARLEWGGRNGWVSPWGQGTLVTVSS
VL: DVVMTQSPSSVSASVGDRVTITCRASQSISSYLNWYQQRPGKAPKLLIFAASSLQSAVPSRFSGSGSGTDFTLTISSLQPEDFATYYCQQSYSTPPTFGQGTKVEIKR
B7: 4B6 scFv (scFv)
scFv: QVQLVQSGAEVKKPGESLVISCKASGDKDTFTSFWIAWVRQMPGKGLEWMGIIYAGDSDTRYSPSFQGHVNISVDRSTNTAYLQWSSLKASDTAMYYCARHDSRYKYFYFGMDVWGQGTTVTVSSGGGGSGGGGSGGGGSDVVMTQSPSSLSASVGDRITITCQAGQDISNFLNWYQQKPGKAPKLLIRDASNLETGVPSRFSGGGSGTHFTFTISSLHPEDIATYFCQQYDNLPYTFGQGTKLEIK
B8: 2B25 scFv (scFv)
scFv: QVQLQESGPGLVKPSQTLSLSCSVSGASITSGTFYWSWIRQHPGKDLEWIGYIYYSGTTYYNPSLKSRVTLSVDTSKNQFSLKVTSLTAADTAVYHCARGVPIYDSSGTYRGTYFDYWGQGTLVTVSSGGGGSGGGGSGGGGSQPGLTQPPSASGTPGQRVTISCSGSSSNVGSNTVNWYQQLPGTAPKLLIYRNDQRPSGVPDRFSGSKSGASASLAISGLRSEDEADYYCAAWDDSLNGLLFGGGTQLTVL
B9: 2B30 scFv (scFv)
scFv: EVQLVESGGGVVQPGRSLRLSCAASGFTFRRNAIHWVRQAPGKGLEWVAVISYDGVNKYYAASVKGRFAISRDNAKNTLFLQMNSLRPEDSAIYYCARDVSEYGDYVGHFDYWGQGTLVTVSSGGGGSGGGGSGGGGSSYELMQLPSASGTPGQRVSISCSGSSSNIGSNPVNWYQQLPGTAPKLLIYSNNHRPSGVPDRFSGSKSGTSASLAISGLQSEDEADYYCAAWDGSLNGHVVFGGGTKLTVL
B10: 4B7 scFv (scFv)
scFv: QVQLQQSGPGLVKPSQTLSLTCSVSGGSINSDGSYWSWVRQHPGKGLEWIGYIYYSGTTYFNPSLKSRLTMSVDTSKNQFSLKMTSVTAADTAVYYCARMSGSRSYSQYYFDSWGQGTLVTVSSGGGGSGGGGSGGGGSDIQMTQSPSSLSASVGDRVTITCRASQSISSYLNWYQQKPGTAPKLLISDASTLQSGVPSRFSGSGSGTEFTLTISNLQPEDFATYYCQQFNSYVWTFGQGTKLEIK
B11: 2B24 scFv (scFv)
scFv: QVQLVESGGGVVQPGRSLRLSCAASGLTFSVYGMHWVRQAPGKGLEWVAVISHTGSEEYYADSVKGRFSISRDNSNNTLFLQMNSLRPEDTAVYYCVKDGPMAAIPFYYFDFWGQGTLVTVSSGGGGSGGGGSGGGGSQSVVTQPPSVSAAPGQKVTISCSGSSSNIGNNYVSWYQQLPGTAPKLLIYDNNKRPSGIPDRFSGSKSGTSATLGITGLQTGDEADYYCGTWDSSLSAGVFGGGTKLTVL
B12: 1B10 scFv (scFv)
scFv: QVQLVESGGGVVQPGRSLRLSCAASGFTFSHYGMHWVRQSPGKGLEWVAVIWYDGRNPYYAASVKGRFTISRDNDKNTLYLQMNSLRAEDTAVYYCVKDLTRFHDTTFGVFEMWGPGTTVTVSSGGGGSGGGGSGGGGSEIVLTQSPSSLSASVGDRITITCRASQSISSWLAWYQQKPGKAPMVLIYKASSLENGVPSRFSGSGSGTEFTLTISSLQPDDFATYYCQQYSTYSRTFGQGTKVEIK
B13: 1B18 IgG (antibody, V domains shown)
VH: B6 VH
VL: B6 VL
B14: 2B23 IgG (antibody, V domains shown)
VH: EVQLLESGGGLVQPGGSLRLSCAASGFTFSNYPMSWVRQAPGKGLAWVSSLTASGDNTFYADSVKGRFTISRDNSNNTLYLQMHSLRAEDTAVYYCAKALVGRYDISTGYYRPVMDSWGQGTLVTVSS
VL: DIQMTQSPPSLSASVGDRVTITCRTSQGFTSALAWYQQKPGEPPKLLIYDASKLESGVPSRFSGSGSGTNFALTISSLQPEDFATYFCQQSNSYPLTFGGGTKVEIKR
B15: B11E8 scFv (scFv)
scFv: EVQLVQSGGGVVQPGRSLRLSCAASGFIFRTYGMHWVRQAPGKGLEWVAFVSSDGNNKFYSDSVKGRFTISRDNAKNTLYLQMNSLETEDTAMYYCAKDRYPIDCSGGSCFSYGMDVWGQGTTVTVSSGGGGSGGGGSGGGGSEIVLTQSPATLSVSPGERATLSCRASQSVSKFLAWYQQKRGQAPRLLIYGASTRATGIPARFSGSGSGTEFALTISSLQSEDFADYYCQQYDNWPITFGQGTRLEIK

What follows are binders tested against T1, BoNT/B1 (Clostridium botulinum, UniProt P10844 2-1291) (assay: flow cytometry, yeast-displayed Fab, soluble toxin).
T1 sequence: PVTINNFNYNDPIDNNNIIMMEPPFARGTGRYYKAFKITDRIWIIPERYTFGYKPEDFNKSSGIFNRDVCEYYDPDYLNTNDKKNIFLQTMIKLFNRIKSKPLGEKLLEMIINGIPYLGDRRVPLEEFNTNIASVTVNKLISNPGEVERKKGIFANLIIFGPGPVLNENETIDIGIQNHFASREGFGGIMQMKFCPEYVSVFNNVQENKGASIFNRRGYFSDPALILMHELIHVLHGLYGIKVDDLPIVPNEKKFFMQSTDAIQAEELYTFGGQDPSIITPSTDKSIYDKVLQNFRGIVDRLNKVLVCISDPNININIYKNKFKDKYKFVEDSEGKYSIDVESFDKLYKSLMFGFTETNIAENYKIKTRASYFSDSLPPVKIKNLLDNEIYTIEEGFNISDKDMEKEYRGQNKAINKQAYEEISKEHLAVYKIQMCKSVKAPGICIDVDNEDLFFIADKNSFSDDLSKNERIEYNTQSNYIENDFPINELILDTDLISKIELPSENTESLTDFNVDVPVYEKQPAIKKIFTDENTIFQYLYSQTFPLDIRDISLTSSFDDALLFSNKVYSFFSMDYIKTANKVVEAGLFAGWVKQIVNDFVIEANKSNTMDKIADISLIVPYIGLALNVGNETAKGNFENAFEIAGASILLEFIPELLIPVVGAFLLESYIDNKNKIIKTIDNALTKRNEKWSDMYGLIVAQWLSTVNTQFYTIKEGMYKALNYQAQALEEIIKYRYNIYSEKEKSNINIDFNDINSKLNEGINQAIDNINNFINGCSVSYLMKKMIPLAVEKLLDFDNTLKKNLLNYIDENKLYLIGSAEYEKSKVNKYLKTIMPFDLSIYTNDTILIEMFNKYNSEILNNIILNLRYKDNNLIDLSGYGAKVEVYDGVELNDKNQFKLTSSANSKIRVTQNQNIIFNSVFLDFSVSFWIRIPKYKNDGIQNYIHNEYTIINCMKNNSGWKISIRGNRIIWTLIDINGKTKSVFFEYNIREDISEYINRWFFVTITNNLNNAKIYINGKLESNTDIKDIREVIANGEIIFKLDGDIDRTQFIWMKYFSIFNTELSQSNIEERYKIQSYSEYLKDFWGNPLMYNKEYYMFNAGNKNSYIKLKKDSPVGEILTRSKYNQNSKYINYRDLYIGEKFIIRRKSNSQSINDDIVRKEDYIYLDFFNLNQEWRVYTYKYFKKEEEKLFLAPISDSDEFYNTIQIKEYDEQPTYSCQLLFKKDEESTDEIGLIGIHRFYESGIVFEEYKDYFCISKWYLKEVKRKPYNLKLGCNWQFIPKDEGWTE

Binder	Kd [nM]
B1	0.405
B2	0.254

What follows are binders tested against T1, BoNT/B1 (assay: not given).

Binder	fold increase in affinity, IgG against parental scFv [fold]
B3	1.5 to 25

What follows are binders tested against T1, BoNT/B1 (assay: flow cytometry, yeast-displayed scFv, soluble toxin).

Binder	Kd [nM]
B4	0.079
B5	0.515
B6	7.3

Biological target: T1, BoNT/B1
Test: as above
Remark: another data set of the same source

Binder	Kd [nM]
B7	2.7
B8	0.95
B9	0.37
B4	0.08
B5	0.52
B6	7.3
B10	29.4
B11	0.79
B12	11.2

These binders were tested against T1, BoNT/B1 (assay: yeast-displayed Fab against parental B6 scFv, flow cytometry).

Binder	KD wild type/KD matured [fold]
B1	7
B2	11

These binders were tested against T1, BoNT/B1 (assay: KinExA flow fluorimetry, IgG in solution).

Binder	Kd [nM]
B3	0.335
B13	0.816
B14	0.0382

Biological target: T1, BoNT/B1
Test: flow cytometry, yeast-displayed scFv, soluble toxin
Remark: another data set of the same source

Binder	Kd [nM]
B15	0.193
